# Measured values reported in patent publication US20060194321A1, “Directed differentiation of embryonic stem cells and uses thereof” (priority 2005, published 2006).
# Entries after “also recorded” stand apart in the source; their conditions may differ.
# B1: Beta-cellulin: late factor growth factor, 50 ng/ml (protein, UniProt P35070 32-111, looked up)
# Betacellulin: DGNSTRSPETNGLLCGDPEENCAATTTQSKRKGHFSRCPKQYKHYCIKGRCRFVVAEQTPSCVCDEGYIGARCERVDLFY
# B2: Nodal: TGF-β-related ligand, evolutionarily conserved endoderm inducer; recombinant protein (protein, UniProt Q96S42 238-347, looked up)
# Nodal homolog: HHLPDRSQLCRKVKFQVDFNLIGWGSWIIYPKQYNAYRCEGECPNPVGEEFHPTNHAYIQSLLKRYQPHRVPSTCCAPVKTKPLSMLYVDNGRVLLDHHKDMIVEECGCL
# B3: BMP4: early factor, growth factor, 50 ng/ml (protein, UniProt P12644 293-408, looked up)
# Bone morphogenetic protein 4: SPKHHSQRARKKNKNCRRHSLYVDFSDVGWNDWIVAPPGYQAFYCHGDCPFPLADHLNSTNHAIVQTLVNSVNSSIPKACCVPTELSAISMLYLDEYDKVVLKNYQEMVVEGCGCR
# B4: Activin A: early factor, TGF-β related growth factor, 50 ng/ml (protein, UniProt P08476 311-426, looked up)
# Inhibin beta A chain: GLECDGKVNICCKKQFFVSFKDIGWNDWIIAPSGYHANYCEGECPSHIAGTSGSSLSFHSTVINHYRMRGHSPFANLKSCCVPTKLRPMSMLYYDDGQNIIKKDIQNMIVEECGCS
# modifications: Inhibin beta A chain
# notes: early factor, TGF-β related growth factor, 50 ng/ml
# Tested on: Human embryonic stem cell 3 (hES3)
# Assay: pdx-1 expression by quantitative RT-PCR in embryoid bodies in 3D […] (initiation protocol)
# Type: cell-based
# Settings: factor included in or omitted from the early/late factor cocktail, day 20
# Protocol: Human embryonic stem cell 3 (hES3) were subjected to a multi-step differentiation protocol, as outlined in FIG. 2. The embryonic stem cells were cultured as embryoid bodies suspended in 3D in […]™. The cells were cultured for 10 days in medium containing the early factors and then for 10 days in medium containing the late factors. Following culture, cells were assayed for expression of pdx-1.
# To establish a baseline for comparison, human embryonic stem cells were differentiated, as described above, in 3-dimensional culture in […]™ for 20 days. […] RNA was isolated and analyzed for pdx-1 and actin expression by RT-PCR. Data were standardized in comparison to actin expression, and the results are expressed as absolute g pdx-1/kg Actin expression+/−SD.
# We evaluated individual early and late factors. […] This revised protocol differs from the initial 20-day protocol only in the nature of the early and late factors used. This 2 EF-3 LF protocol included the early factors Activin A (50 ng/ml) and BMP-4 (50 ng/ml). The cells were cultured in the early factors as previously described from day 0 to day 10. The 2 EF-3 LF protocol included the late factors HGF (50 ng/ml), exendin-4 (10 ng/ml), and β-cellulin (50 ng/ml).
# RNA isolation, cDNA synthesis, and quantitative PCR: Total RNA from hESC or EBs at various stages of differentiation was isolated using the Qiagen RNeasy kit or prepared using Trizol reagent (Invitrogen) according to the manufacturer's instructions. RNA was and quantified by UV absorption. 1 to 5 μg of RNA was DNase I treated and converted to cDNA using M-MuLV reverse transcriptase (New England Biolabs) using oligo-dT or random hexamer primers according to the manufacturer's instructions. Quantitative PCR was performed according to the manufacturer's instructions using a BioRad iCycler with approximately 50 ng cDNA per reaction containing 250 nM of each primer and 1×SYBR green master mix (Bio-Rad) and analyzed by Bio-RAD thermocycler.
# Standard curves were generated by plotting the log (concentration in fg) of series of 100-fold dilutions of the target PCR amplicon (a range of 10^4 fg to 1 fg per reaction) versus the corresponding threshold Ct value. Normalized expression was determined by the following equation: Normalized expression=(input of target gene/input of actin control), where input is calculated as the inverse log of ((the threshold cycle (Ct value)—Y-intercept of standard curve)/slope of standard curve).
Molecule,contribution of the factor to induction of pdx-1 expression,contribution of the factor to induction of pdx-1 expression (listed as betacellulin),contribution of the factor to induction of pdx-1 expression (listed as nodal)
B1,important component,optional,
B2,little effect; also recorded: does not significantly improve,,optional
B3,important components,,
B4,important components,,
